Experiment [1] has as its target T1, recombinant human IL17A protein (human, UniProt Q16552 24-155). Description: cell-based or functional assay.
The target of experiment [2] is T2, recombinant human IL17A/F dimer protein (SinoBiological, Inc., CT047-HNAE) (human, UniProt Q16552 24-155; Q96PD4 31-163). Put plainly: cell-based or functional assay.
The target of experiment [3] is T3, mouse mIL17A protein (Sino Biological, Inc.) (mouse, UniProt Q62386 26-158).
T3 construct: also called mouse IL17A protein
T3 sequence (looked up): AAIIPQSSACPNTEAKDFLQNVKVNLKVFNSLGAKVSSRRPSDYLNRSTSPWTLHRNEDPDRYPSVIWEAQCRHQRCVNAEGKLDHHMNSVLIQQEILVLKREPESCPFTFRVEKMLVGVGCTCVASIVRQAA
Description: ELISA, coated antigen, goat anti-human IgG Fc/HRP. For orientation: An ELISA detects its analyte on a solid surface through an enzyme-linked reagent.

Experiment [4] concerns the target T1, recombinant human IL17A protein. Put plainly: Octet (BLI), biotinylated IL17A, antibody 0.42-3.47 nM. In general terms: In BLI a coated tip is dipped into the sample, and binding shifts an interference pattern.
The target in experiment [5] is T2, recombinant human IL17A/F dimer protein …. Description: Octet (BLI), biotinylated IL17A/F, antibody 0.42-3.47 nM.
Experiment [6] has as its target T1, recombinant human IL17A protein. Description: competition ELISA: IL17A coated, competitor IL17RA-His-biotin at 2 µg/mL, antibody varied.
The target in experiment [7] is T2, recombinant human IL17A/F dimer protein …. Description: competition ELISA: IL17RA-Fc coated (competitor), IL17A/F-Biotin at 0.8 µg/mL, antibody varied.
Experiment [8] addresses T1, recombinant human IL17A protein. Description: ELISA: IL17A coated at different concentrations, antibody fixed at 2 µg/mL, anti-human IgG Fc/HRP; EC50 is on the antigen concentration.
The target of experiment [9] is T2, recombinant human IL17A/F dimer protein …. Put plainly: ELISA: IL17A/F coated at different concentrations, antibody fixed at 2 µg/mL, anti-human IgG Fc/HRP; EC50 is on the antigen concentration.
Experiment [10] has as its target T1, recombinant human IL17A protein. Put plainly: cell-based or functional assay. The source holds these as a separate data set.

Where “and” joins values, the source holds several entries; their conditions need not be identical. Equal values may be shown once.

The term Kd denotes the constant that tells how readily two partners part at equilibrium. As a reminder, the koff is a measure of how fast the partners let go of each other. For orientation: kon means the second-order rate constant of association. The term IC50 denotes the point on the concentration scale where inhibition reaches its midpoint. In general, EC50 refers to the concentration that produces a half-maximal response.

T2 sequence (Q16552 24-155 limits assumed, chain 1 of 2): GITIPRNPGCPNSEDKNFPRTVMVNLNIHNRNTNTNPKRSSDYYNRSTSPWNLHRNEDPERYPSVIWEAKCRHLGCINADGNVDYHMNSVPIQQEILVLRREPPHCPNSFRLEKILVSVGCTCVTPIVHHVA
T2 sequence (Q96PD4 31-163 limits assumed, chain 2 of 2): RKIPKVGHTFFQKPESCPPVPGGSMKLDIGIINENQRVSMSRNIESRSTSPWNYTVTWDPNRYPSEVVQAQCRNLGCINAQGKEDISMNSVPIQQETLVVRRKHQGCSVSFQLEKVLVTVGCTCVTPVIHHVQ
T1 sequence (Q16552 24-155 limits assumed): as the sequence (Q16552 24-155 limits assumed, chain 1 of 2) above

B1: humanized antibody IL17A-H069 (antibody, human IgG1, kappa, V domains shown)
VH: EVQLVQSGAEVKKPGATVKISCKASGYTFTDYEMHWVQQAPGHGLEWMGVIHPGGGGTAYNQKFKGRVTITADTSTDTAYMELSSLRSEDTAVYYCTRGDHDGRTDYWGQGTLVTVSS
VL: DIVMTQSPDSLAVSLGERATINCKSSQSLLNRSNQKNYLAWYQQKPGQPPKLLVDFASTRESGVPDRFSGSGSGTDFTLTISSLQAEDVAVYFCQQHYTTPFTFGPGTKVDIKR
notes: Humanized IgG1/kappa made in CHO-K1-GS cells
With B1, the “EC50 (µg/mL), blocking IL17A-induced IL6 secretion of HFF cells” value in experiment [1] is 0.2 µg/mL and 0.19 µg/mL. Besides, the “EC50 (µg/mL), blocking IL17A/F-induced IL6 secretion of HFF cells” value in experiment [2] was 1.19 µg/mL and 0.83 µg/mL. Further, the binding result in experiment [3] was “no binding”. For the same molecule, the Kd stood at 0.0288 nM in [4] and 0.537 nM in [5]. Also, the results for the koff in experiment [4] and in [5] were 1.93e-05 s⁻¹ and 7.72e-05 s⁻¹, respectively. Further, the values for the kon in experiment [4] and in [5] were 671000 M⁻¹ s⁻¹ and 144000 M⁻¹ s⁻¹, respectively. Further, the IC50 was 0.5 µg/mL in [6] and 1.02 µg/mL in experiment [7]. Also, the EC50 amounted to 0.046 µg/mL in experiment [8] and 0.0363 µg/mL in experiment [9].

B2: murine antibody IL17A-M069 (antibody, mouse IgG1, V domains shown)
VH: QAHLQQSGAELVRPGASVKLSCKALGYTFTDYEMHWVKQTPVHGLEWIGVIHPGGGGTAYNQKFKGKATLTADKSSSTAYMELSSLTSEDSAVYYCTRGDHDGRTDYWGQGTTLTVSS
VL: DIVMSQSPSSLAMSVGQKVTMNCKSNQSLLNRSNQKNYLAWYQQKPGQSPKLLVDFASTRESGVPDRFIGSGSGTDFSLTISSVQAEDLADYFCQQHYTTPFTFGSGTKLEIK
Take B2: in [10], the “EC50 of blocking IL17A-induced IL-6 secretion of HFF cells” value is 243 ng/mL.

These data come from patent US20220144936A1 (SINOCELLTECH, published 2022).
